The series deals with the molecule itself. Briefly: crystal structure.

Changes are numbered by the printed parent chain.

The text below walks through data of publication PMC7612262 (Structure (London, England : 1993), 2006).

B1: MS2 coat protein Asn87Ser mutant (natural protein, bacteriophage MS2)
chain: ASNFTQFVLVDNGGTGDVTVAPSNFANGVAEWISSNSRSQAYKVTCSVRQSSAQNRKYTIKVEVPKVATQTVGGVELPVAAWRSYLSMELTIPIFATNSDCELIVKAMQGLLKDGNPIPSAIAANSGIY
As to B1, the binding result is “binds”.

B2: MS2 coat protein Asn87Ser, Glu89Lys double mutant (natural protein, bacteriophage MS2)
chain: B1 chain with E89K
With B2, the binding result is “binds”.
